Measured values from article PMC9106297, “Structure of a TRAPPII-Rab11 activation intermediate reveals GTPase substrate selection mechanisms” (Science Advances, 2022).

Tests used:
Experiment in all cases: cryo-EM structure; TRAPPII purified from yeast, incubated with tenfold molar excess of Rab11/Ypt32-7xHis and calf intestine alkaline phosphatase at 4°C overnight (nucleotide-free Rab), complex purified on Calmodulin Sepharose and by SEC; 10 mM tris (pH 8.0), 150 mM NaCl, 0.1% CHAPS, 1 mM Mg acetate, 1 mM dithiothreitol; single-particle cryo-EM
Details in all cases: both partners purified
[1] = target: T1, Trs33 (TRAPP core subunit, in purified TRAPPII) (S. cerevisiae, UniProt Q99394 1-268)
T1 construct: Trs33, S. cerevisiae, endogenous; source: endogenous, purified from S. cerevisiae as a subunit of TRAPPII
T1 sequence (looked up): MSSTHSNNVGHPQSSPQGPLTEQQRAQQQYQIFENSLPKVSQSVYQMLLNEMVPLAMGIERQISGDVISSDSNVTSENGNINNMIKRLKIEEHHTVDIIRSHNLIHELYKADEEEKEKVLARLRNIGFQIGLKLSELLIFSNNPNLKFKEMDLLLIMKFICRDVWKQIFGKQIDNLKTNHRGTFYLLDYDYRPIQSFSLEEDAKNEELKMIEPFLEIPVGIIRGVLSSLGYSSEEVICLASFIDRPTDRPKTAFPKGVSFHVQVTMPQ

[2] = target: T2, Bet3 (TRAPP core subunit, in purified TRAPPII) (S. cerevisiae, UniProt P36149 1-193)
T2 construct: Bet3, S. cerevisiae, endogenous; source: endogenous, purified from S. cerevisiae as a subunit of TRAPPII
T2 sequence (looked up): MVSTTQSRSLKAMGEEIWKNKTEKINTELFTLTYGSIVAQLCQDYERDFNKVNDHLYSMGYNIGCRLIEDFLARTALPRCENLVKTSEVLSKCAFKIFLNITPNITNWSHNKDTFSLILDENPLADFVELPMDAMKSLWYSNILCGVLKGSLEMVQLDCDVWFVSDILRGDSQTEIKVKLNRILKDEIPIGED

[3] = target: T3, Trs130 (TRAPPII-specific subunit, in purified TRAPPII) (S. cerevisiae, UniProt Q03660 1-1102)
T3 construct: Trs130, S. cerevisiae, endogenous copy tagged at the C terminus; source: endogenous, purified from S. cerevisiae as a subunit of TRAPPII; not shown: held on Calmodulin Sepharose), C-terminal, kept
T3 sequence (looked up): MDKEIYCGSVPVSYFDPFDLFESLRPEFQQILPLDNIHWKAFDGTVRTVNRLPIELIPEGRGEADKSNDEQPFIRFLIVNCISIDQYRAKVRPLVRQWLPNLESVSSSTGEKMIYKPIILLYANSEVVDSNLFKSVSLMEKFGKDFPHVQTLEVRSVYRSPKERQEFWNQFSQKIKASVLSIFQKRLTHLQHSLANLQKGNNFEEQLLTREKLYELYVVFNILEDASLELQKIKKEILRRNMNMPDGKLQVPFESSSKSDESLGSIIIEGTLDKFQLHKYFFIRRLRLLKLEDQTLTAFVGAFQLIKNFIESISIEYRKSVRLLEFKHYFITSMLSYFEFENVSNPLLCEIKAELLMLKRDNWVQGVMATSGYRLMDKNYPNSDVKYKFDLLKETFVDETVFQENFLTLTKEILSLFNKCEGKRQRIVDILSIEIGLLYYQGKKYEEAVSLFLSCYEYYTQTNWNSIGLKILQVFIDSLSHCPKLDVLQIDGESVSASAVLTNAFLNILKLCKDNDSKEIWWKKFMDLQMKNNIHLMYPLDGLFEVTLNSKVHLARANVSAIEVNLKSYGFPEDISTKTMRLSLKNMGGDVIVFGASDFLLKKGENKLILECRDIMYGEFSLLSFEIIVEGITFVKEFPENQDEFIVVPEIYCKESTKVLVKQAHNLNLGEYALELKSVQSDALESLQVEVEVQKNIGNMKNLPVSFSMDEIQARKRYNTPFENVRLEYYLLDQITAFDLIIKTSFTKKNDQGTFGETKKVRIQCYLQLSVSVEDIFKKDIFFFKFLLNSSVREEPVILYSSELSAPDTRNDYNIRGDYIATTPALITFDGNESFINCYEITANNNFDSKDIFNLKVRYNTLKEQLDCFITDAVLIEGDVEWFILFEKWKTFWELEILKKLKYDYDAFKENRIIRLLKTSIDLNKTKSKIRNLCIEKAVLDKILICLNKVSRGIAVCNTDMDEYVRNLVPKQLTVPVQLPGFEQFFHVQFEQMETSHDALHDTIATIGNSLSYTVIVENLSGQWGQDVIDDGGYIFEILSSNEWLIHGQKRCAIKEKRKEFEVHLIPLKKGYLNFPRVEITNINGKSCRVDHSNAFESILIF

Measured: binding result

B1: Tca17 (TRAPPII subunit, in purified TRAPPII) (natural protein, S. cerevisiae, UniProt P32613 1-152, looked up)
chain: MSLRPCFVSLIDESDKPILIYVPNEAENEMNDVLKYNVLSNISLDYFESALVEWHSLDSKPLLKSIFQLEGVSVFAMLIKQTGLKIVIGFEQKSLSGADDEFEAINQIFETVRKIYIRVKCNPLLVSGDEKSIIKSLERKFDELFISTEVEL
notes: Tca17, S. cerevisiae, endogenous; source: endogenous, purified from S. cerevisiae as a subunit of TRAPPII
binds: all assays above
